Measurements as given in the supplement of paper PMC9732359.
± gives the uncertainty stated by the source.

Test: protein stability index of a GFP-peptide fusion (yeast GPS) (PSI 1-4); higher = more stable; sorted into four equal gates, so the index is relative within each strain
Summary of the method: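 The protein stability index combines read frequencies across sorting gates, each weighted by its gate number and then summed. To obtain those frequencies, a pooled yeast library of GFP fusions to tiled 17-residue yeast protein peptides, on a plasmid also expressing Cherry, was grown to mid-log phase in leucine-free medium. The cells were sorted into four equal gates by GFP/Cherry ratio before plasmid amplification by PCR and Illumina sequencing.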

## EIMQQKFPATNVTTILD [ECM29]
doa10∆
  protein stability index: 2.41 ± 0.061
pdr5∆
  protein stability index: 2.47 ± 0.055
san1∆
  protein stability index: 2.19 ± 0.063
ubr1∆
  protein stability index: 2.45 ± 0.057

## EIQPRANIQLDFPELKP [FAS2]
doa10∆
  protein stability index: 3.13 ± 0.064
pdr5∆
  protein stability index: 3.11 ± 0.063
san1∆
  protein stability index: 3.12 ± 0.076
ubr1∆
  protein stability index: 3.26 ± 0.042

## EIRRFQKSTELLIRKLP [HHT1]
doa10∆
  protein stability index: 2.64 ± 0.13
pdr5∆
  protein stability index: 2.74 ± 0.095
san1∆
  protein stability index: 1.87 ± 0.24
ubr1∆
  protein stability index: 2.25 ± 0.12

## EITEKKNGESLEGEEIK [RPN1]
pdr5∆
  protein stability index: 3.03 ± 0.3

## EIVNMVPSHVPQVLINR [SIR2]
doa10∆
  protein stability index: 3.13 ± 0.11
pdr5∆
  protein stability index: 2.93 ± 0.079
san1∆
  protein stability index: 2.53 ± 0.11
ubr1∆
  protein stability index: 2.88 ± 0.054

## EIVRDILHTKESSNEAK [SIR4]
doa10∆
  protein stability index: 2.75 ± 0.067
pdr5∆
  protein stability index: 2.96 ± 0.074
san1∆
  protein stability index: 2.82 ± 0.06
ubr1∆
  protein stability index: 2.75 ± 0.059

## EKDAKINKLMEKDFQVN [SIR4]
doa10∆
  protein stability index: 3.22 ± 0.067
pdr5∆
  protein stability index: 3.44 ± 0.07
san1∆
  protein stability index: 3.3 ± 0.07
ubr1∆
  protein stability index: 3.47 ± 0.055

## EKDLEHWLQLAKGVYRP [POP1]
doa10∆
  protein stability index: 2.64 ± 0.072
pdr5∆
  protein stability index: 3 ± 0.067
san1∆
  protein stability index: 3.15 ± 0.041
ubr1∆
  protein stability index: 3.1 ± 0.064

## EKELKIFTDAGRVYRPL [RPB2]
doa10∆
  protein stability index: 3.04 ± 0.067
pdr5∆
  protein stability index: 3.44 ± 0.082
san1∆
  protein stability index: 3.09 ± 0.063
ubr1∆
  protein stability index: 3.34 ± 0.042

## EKESDDGLLEYLEDIIG [SMC4]
doa10∆
  protein stability index: 3.47 ± 0.091
pdr5∆
  protein stability index: 3.31 ± 0.075
san1∆
  protein stability index: 3.15 ± 0.079
ubr1∆
  protein stability index: 3.54 ± 0.1

## EKIFHYGHVFLGITGLA [PUP3]
doa10∆
  protein stability index: 1.17 ± 0.086
pdr5∆
  protein stability index: 1.34 ± 0.094
san1∆
  protein stability index: 1.15 ± 0.18
ubr1∆
  protein stability index: 1.05 ± 0.074

## EKIMENKYPELLGKDNE [AAR2]
doa10∆
  protein stability index: 3.04 ± 0.073
pdr5∆
  protein stability index: 3.24 ± 0.062
san1∆
  protein stability index: 3.24 ± 0.039
ubr1∆
  protein stability index: 2.96 ± 0.045

## EKKLEDYCRILSDIETA [YGL172W/NUP49]
doa10∆
  protein stability index: 1.75 ± 0.11
pdr5∆
  protein stability index: 3.14 ± 0.09
san1∆
  protein stability index: 2.67 ± 0.11
ubr1∆
  protein stability index: 2.55 ± 0.089

## EKLDVSRSSVCVKAIEA [YCG1]
doa10∆
  protein stability index: 2.54 ± 0.065
pdr5∆
  protein stability index: 2.16 ± 0.058
san1∆
  protein stability index: 2.08 ± 0.079
ubr1∆
  protein stability index: 2.11 ± 0.058

## EKPLTPLKYTKLIAAAE [SNF6]
doa10∆
  protein stability index: 1.25 ± 0.23
pdr5∆
  protein stability index: 1.27 ± 0.12
san1∆
  protein stability index: 1.22 ± 0.21
ubr1∆
  protein stability index: 1.15 ± 0.2

## EKRHKNVPVHVSPAFRV [RPS11A]
doa10∆
  protein stability index: 1.8 ± 0.051
pdr5∆
  protein stability index: 2.72 ± 0.077
san1∆
  protein stability index: 2.9 ± 0.07
ubr1∆
  protein stability index: 2.75 ± 0.053

## EKSTQLQQKHELDTASR [YGR119C/NUP57]
doa10∆
  protein stability index: 2.95 ± 0.044
pdr5∆
  protein stability index: 3.06 ± 0.039
san1∆
  protein stability index: 2.85 ± 0.029
ubr1∆
  protein stability index: 3.21 ± 0.031

## EKTFLHLPCTIEAEEAE [RPN8]
doa10∆
  protein stability index: 1.56 ± 0.078
pdr5∆
  protein stability index: 2.05 ± 0.071
san1∆
  protein stability index: 2.48 ± 0.12
ubr1∆
  protein stability index: 2.48 ± 0.07

## EKTGKSASLKKIQQHNT [BRR2]
pdr5∆
  protein stability index: 2.96 ± 0.2

## EKTMVKKNLGRLTRLWI [PRP8]
doa10∆
  protein stability index: 2.28 ± 0.13
pdr5∆
  protein stability index: 3.07 ± 0.12
san1∆
  protein stability index: 1.45 ± 0.14
ubr1∆
  protein stability index: 1.67 ± 0.2

## EKWISSKNSKLSIICVG [SIR3]
doa10∆
  protein stability index: 1.82 ± 0.091
pdr5∆
  protein stability index: 1.52 ± 0.075
san1∆
  protein stability index: 1.37 ± 0.17
ubr1∆
  protein stability index: 1.23 ± 0.073

## EKWLLNQIPVTEHSKVT [SRB6]
doa10∆
  protein stability index: 1.9 ± 0.051
pdr5∆
  protein stability index: 2.6 ± 0.068
san1∆
  protein stability index: 1.99 ± 0.12
ubr1∆
  protein stability index: 2.37 ± 0.057

## ELALKTLSKTTDSSALT [PRE9]
doa10∆
  protein stability index: 2.62 ± 0.057
pdr5∆
  protein stability index: 2.1 ± 0.06
san1∆
  protein stability index: 2.54 ± 0.065
ubr1∆
  protein stability index: 2.73 ± 0.043

## ELAQDPQTMEHYKQQIA [YCS4]
doa10∆
  protein stability index: 2.31 ± 0.055
pdr5∆
  protein stability index: 2.65 ± 0.077
san1∆
  protein stability index: 2.1 ± 0.1
ubr1∆
  protein stability index: 2.4 ± 0.06

## ELDQEYRSCETQDESEI [SMC4]
doa10∆
  protein stability index: 3.11 ± 0.12
pdr5∆
  protein stability index: 3.24 ± 0.21
san1∆
  protein stability index: 2.67 ± 0.19
ubr1∆
  protein stability index: 3.31 ± 0.091

## ELGVSIYDFPGTPEATK [NUT2]
doa10∆
  protein stability index: 2.92 ± 0.076
pdr5∆
  protein stability index: 3.06 ± 0.098
san1∆
  protein stability index: 3.06 ± 0.078
ubr1∆
  protein stability index: 3.04 ± 0.048

## ELKEITSLPDWCQEAFP [BRR2]
doa10∆
  protein stability index: 2.86 ± 0.069
pdr5∆
  protein stability index: 2.73 ± 0.076
san1∆
  protein stability index: 3.11 ± 0.064
ubr1∆
  protein stability index: 3.08 ± 0.046

## ELKNELAKTKENYDAKI [YIL149C/MLP2]
doa10∆
  protein stability index: 3.22 ± 0.073
pdr5∆
  protein stability index: 3.43 ± 0.071
san1∆
  protein stability index: 3.15 ± 0.052
ubr1∆
  protein stability index: 3.08 ± 0.076
